Test results as given in patent publication US8993725B2, “Notch-based fusion proteins and uses thereof” (The Trustees of Columbia University in the City of New York, priority 2004, dated 2015).

Tests used:
Type in all cases: cell-based, Human
MMP9 = experiment: Gelatin zymography of conditioned medium of transduced HUVEC, MMP-9; conditions: co-transduction with Ad-VEGF; fibrin gel
Procedure: (§1) FIGS. 24A-B show gelatin zymography analysis of MMP-9 and MMP-2 activity stimulated by VEGF in HUVEC. […] Transduced HUVEC were cultured on fibrin gel on the indicated day (i.e. D2, D4, D6, D8). Similar results were also obtained by using collagen gel, although induction of MMP-9 was stronger on fibrin gel than collagen gel (data not shown). […] HUVEC were transduced with Ad-N1ECDFc at the indicated doses and condition medium was collected from HUVEC cultured on collagen gel at day 4. FIGS. 24C-D show up-regulation of MMP-9 and MT1-MMP with Notch signaling. HUVEC were transduced with either Ad-LacZ or Ad-N1IC at 40 MOI. Numbers show PCR cycles. […] HUVEC were transduced with Ad-VEGF in the absence or presence of co-transduction of Ad-N1ECDFc at 40 MOI each. Ad-LacZ was co-transduced to make the same total amount of adenovirus at 80 MOI.
(§2) Requisition of MMPs for angiogenic sprouting has been established by synthetic MMP inhibitors (16). GM6001 is one broad inhibitor against MMPs including MMP2, MMP9 and MT1-MMP (18).

MMP2 = experiment: Gelatin zymography of conditioned medium of transduced HUVEC, MMP-2; conditions: co-transduction with Ad-VEGF; collagen gel, day 4
Procedure: as §1, §2

HUVEC = HUVEC proliferation (CCK-8 kit); conditions: complete medium, 4 days
Procedure: These Figures show proliferation of Ad-VEGF165-transduced HUVEC. HUVEC were transduced with Ad-VEGF165 at the indicated dosages. Ad-LacZ was also co-infected to make the same total amount of adenovirus at a MOI of 40 pfu/cell. HUVEC were suspended in SFM supplemented with 1% FBS and then plated at 1×10^4 cells/well in 24-well multi-well plates with 0.4 ml of medium. After 4 days, cell numbers were determined using the CCK-8 kit and the results are indicated as the ratio of cell numbers determined to the number of control cells, which were transduced with Ad-GFP at a MOI of 40 pfu/cell. […] Ad-VEGF-transduced HUVEC were treated with SU5416 at the indicated dosages.
These Figures show the effect of alteration of Notch signaling on cell proliferation. The cells were transduced with the indicated adenoviruses. Ad-GFP was also co-infected to make the same total amount of adenovirus at a MOI of 60 pfu/cell. After 4 days, cell numbers were determined using the CCK-8 kit and results are indicated as the ratio of cell numbers determined to the number of control cells, which were transduced with AD-GFP at MOI of 60 pfu/cell. […] Transduced HUVEC were suspended in complete medium and then plated at 1×10^4 cells/well in 24-well multiwell plates with 0.4 ml of indicated medium (□: Ad-N1IC; ▪: Ad-N1ECDFc). […]

[1] = tested on: Notch signaling (CBF1 promoter activity) in HUVEC; experiment: VEGF-induced Notch signaling, CBF1 promoter / CSL-luciferase reporter activity in HUVEC; conditions: for Inhibition of VEGF-induced CBF1 promoter activity: 40 MOI for each adenovirus; for Effect on VEGF-induced CBF1 promoter / CSL luciferase activity: co-infection (co-transduction) with Ad-VEGF in HUVEC
Procedure: To determine VEGF-induced Notch signaling, HUVEC which were infected with adenovirus were used. HUVEC plated 1-day prior in 6 well plates at 8.0×10^5 were infected with either Ad-LacZ as control or Ad-VEGF at indicated m.o.i. in the presence or absence of Ad-N1ECD/Fc. Two days after infection, infected HUVEC were re-seeded into 24-well plate at 1.5×10^5 cell in triplicate and cultured for 24 hours, and then transfected with 12.5 ng pRL-SV40 (Promega) and 137.5 ng pGA981-6 using Effectene transfection reagent (Qiagen). Cells were harvested either 1 or 2 days post-transfection and luciferase activity was determined by using the Dual-Luciferase® Reporter Assay System (Promega).
One can measure Notch signaling function by measuring transcriptional activity of CBF1 promoter, which is activated by binding of Notch-IC to CBF1. We measured CBF1 promoter activity in HUVEC which was infected with adenovirus encoding VECF-165 at different MOI (FIG. 6). Induction of CBF1 promoter was clearly detected in Ad-VEGF-infected HUVEC, compared to Ad-LacZ-infected cells in the MOI dependent manner. […] Thus VEGF induced Notch signaling activity.

B1: N1ECDFc: Notch-based fusion protein or decoy: extracellular domain of Notch1 containing the EGF-repeats fused to the Fc portion of an antibody (protein)
chain: ARGLRCSQPSGTCLNGGRCEVANGTEACVCSGAFVGQRCQDPSPCLSTPCKNAGTCYVVDHGGIVDYACSCPLGFSGPLCLTPLANACLANPCRNGGTCDLLTLTEYKCRCPPGWSGKSCQQADPCASNPCANGGQCLPFESSYICGCPPGFHGPTCRQDVNECSQNPGLCRHGGTCHNEIGSYRCACRATHTGPHCELPYVPCSPSPCQNGGTCRPTGDTTHECACLPGFAGQNCEENVDDCPGNNCKNGGACVDGVNTYNCRCPPEWTGQYCTEDVDECQLMPNACQNAGTCHNSHGGYNCVCVNGWTGEDCSDNIDDCASAACFQGATCHDRVASFYCECPHGRTGLLCHLNDACISNPCNEGSNCDTNPVNGKAICTCPRGYTGPACSQDVDECALGANPCEHAGKCLNTLGSFECQCLQGYTGPRCEIDVNECISNPCQNDATCLDQIGEFQCICMPGYEGVYCEINTDECASSPCLHNGRCVDKINEFLCQCPKGFSGHLCQYDVDECASTPCKNGAKCLDGPNTYTCVCTEGYTGTHCEVDIDECDPDPCHIGLCKDGVATFTCLCQPGYTGHHCETNINECHSQPCRHGGTCQDRDNYYLCLCLKGTTGPNCEINLDDCASNPCDSGTCLDKIDGYECACEPGYTGSMCNVNIDECAGSPCHNGGTCEDGIAGFTCRCPEGYHDPTCLSEVNECNSNPCIHGACRDGLNGYKCDCAPGWSGTNCDINNNECESNPCVNGGTCKDMTSGYVCTCREGFSGPNCQTNINECASNPCLNQGTCIDDVAGYKCNCPLPYTGATCEVVLAPCATSPCKNSGVCKESEDYESFSCVCPTGWQGQTCEIDINECVKSPCRHGASCQNTNGSYRCLCQAGYTGRNCESDIDDCRPNPCHNGGSCTDGVNAAFCDCLPGFQGAFCEEDINECATNPCQNGANCTDCVDSYTCTCPTGFNGIHCENNTPDCTESSCFNGGTCVDGINSFTCLCPPGFTGSYCQYDVNECDSRPCLHGGTCQDSYGTYKCTCPQGYTGLNCQNLVRWCDSAPCKNGGKCWQTNTQYHCECRSGWTGFNCDVLSVSCEVAAQKRGIDVTLLCQHGGLCVDEEDKHYCHCQAGYTGSYCEDEVDECSPNPCQNGATCTDYLGGFSCKCVAGYHGSNCSEEINECLSQPCQNGGTCIDLTNTYKCSCPRGTQGVHCEINVDDCHPPLDPASRSPKCFNNGTCVDQVGGYTCTCPPGFVGERCEGDVNECLSNPCDPRGTQNCVQRVNDFHCECRAGHTGRRCESVINGCRGKPCRNGGVCAVASNTARGFICRCPARFEGATCENDARTCGSLRCLNGGTCISGPRSPTCLCLGSFTGPECQFPASSPCVGSNPCYNQGTCEPTSESPFYRCLCPAKFNGLLCHILDYSFTDLGPG
modifications: left off: a dimerising Fc or GST
notes: Notch-based fusion protein or decoy: extracellular domain of Notch1 containing the EGF-repeats fused to the Fc portion of an antibody
VEGF-stimulated induction and activation of MMP9 (gelatin zymography) (MMP9): inhibition of both induction and activation of MMP9
VEGF-stimulated activation of MMP2 (gelatin zymography) (MMP2): inhibition
Proliferation of transduced HUVEC (HUVEC): did not clearly alter proliferation of HUVEC
Inhibition of VEGF-induced CBF1 promoter activity ([1]; 24 hr after reporter gene transfection): 60%
Inhibition of VEGF-induced CBF1 promoter activity ([1]; 48 hr after reporter gene transfection): 90%
Effect on VEGF-induced CBF1 promoter / CSL luciferase activity ([1]; listed as Ad-N1ECDFc): clearly decreased CSL luciferase activity induced by VEGF
Effect on VEGF-induced CBF1 promoter / CSL luciferase activity ([1]; listed as Ad-Notch fusion protein): clearly reduced activation of CBF1 promoter activity
Effect on VEGF-induced CBF1 promoter / CSL luciferase activity ([1]; listed as Ad-Notch-based fusion protein): clearly reduced activation of CBF1 promoter activity
MOI dependence of the inhibitory activity on VEGF-induced CBF1 promoter activity ([1]; co-infection with Ad-VEGF in HUVEC): dependent on MOI
